T1: Alb4C-His (recombinant His-tagged C-terminus of Alb4, aa 334-499) (UniProt Q9FYL3 334-499)
T1 sequence: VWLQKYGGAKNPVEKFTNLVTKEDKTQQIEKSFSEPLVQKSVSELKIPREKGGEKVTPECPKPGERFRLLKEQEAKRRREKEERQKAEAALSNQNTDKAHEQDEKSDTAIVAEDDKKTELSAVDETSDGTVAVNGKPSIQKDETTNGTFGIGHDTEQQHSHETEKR

B1: His-mSTIC2 (recombinant mature Arabidopsis thaliana STIC2, aa 49-182) (natural protein)
chain: VNGLFGGGNKDNNSEDGQSKAGIFGNMQNMYETVKKAQMVVQVEAVRVQKELAAAEFDGYCAGELVKVTLSGNQQPIRTDITEAAMELGSEKLSQLVTEAYKDAHAKSVVAMKERMSDLAQSLGMPPGLSEGMK

Columns and labels:
[1] = target: B1; assay: ITC
[2] = target: T1, Alb4C-His (recombinant His-tagged …); assay: ITC
[3] = target: B1; assay: peptide or protein array

Binder | binding result [3] | also measured
Alb3C-His (recombinant His-tagged C-terminus of Alb3, aa 350-462) (domain or fragment) VYLRKLGGAKPNMDENASKIISAGRAKRSIAQPDDAGERFRQLKEQEKRSKKNKAVAKDTVELVEESQSESEEGSDDEEEEAREGALASSTTSKPLPEVGQRRSKRSKRKRTV | – | Kd [1]: 136 µM
B1 | – | Kd [2]: 16.6 µM
PKPGERFRLLKEQEA [Alb4 15mer peptide spot (aa 394-408)] | binds | –
GERFRQLKEQEKRSK [Alb3 15mer peptide spot (aa 386-400)] | binds | –

Source: article doi:10.1101/2022.03.18.484870 (bioRxiv, 2022)
